Test results reported in patent US20170158768A1 (PENN STATE RESEARCH FOUNDATION, published 2017).

Biological target: T1, CD11b (mouse, UniProt P05555 17-1153)
T1 construct: Endogenous protein immunoprecipitated from Raw264.7 macrophage extracts with monoclonal CD11b antibody; Its integrin beta partner is not mentioned
Experiment: co-immunoprecipitation with monoclonal CD11b antibody, Western blot

T1 sequence (P05555 17-1153 limits assumed): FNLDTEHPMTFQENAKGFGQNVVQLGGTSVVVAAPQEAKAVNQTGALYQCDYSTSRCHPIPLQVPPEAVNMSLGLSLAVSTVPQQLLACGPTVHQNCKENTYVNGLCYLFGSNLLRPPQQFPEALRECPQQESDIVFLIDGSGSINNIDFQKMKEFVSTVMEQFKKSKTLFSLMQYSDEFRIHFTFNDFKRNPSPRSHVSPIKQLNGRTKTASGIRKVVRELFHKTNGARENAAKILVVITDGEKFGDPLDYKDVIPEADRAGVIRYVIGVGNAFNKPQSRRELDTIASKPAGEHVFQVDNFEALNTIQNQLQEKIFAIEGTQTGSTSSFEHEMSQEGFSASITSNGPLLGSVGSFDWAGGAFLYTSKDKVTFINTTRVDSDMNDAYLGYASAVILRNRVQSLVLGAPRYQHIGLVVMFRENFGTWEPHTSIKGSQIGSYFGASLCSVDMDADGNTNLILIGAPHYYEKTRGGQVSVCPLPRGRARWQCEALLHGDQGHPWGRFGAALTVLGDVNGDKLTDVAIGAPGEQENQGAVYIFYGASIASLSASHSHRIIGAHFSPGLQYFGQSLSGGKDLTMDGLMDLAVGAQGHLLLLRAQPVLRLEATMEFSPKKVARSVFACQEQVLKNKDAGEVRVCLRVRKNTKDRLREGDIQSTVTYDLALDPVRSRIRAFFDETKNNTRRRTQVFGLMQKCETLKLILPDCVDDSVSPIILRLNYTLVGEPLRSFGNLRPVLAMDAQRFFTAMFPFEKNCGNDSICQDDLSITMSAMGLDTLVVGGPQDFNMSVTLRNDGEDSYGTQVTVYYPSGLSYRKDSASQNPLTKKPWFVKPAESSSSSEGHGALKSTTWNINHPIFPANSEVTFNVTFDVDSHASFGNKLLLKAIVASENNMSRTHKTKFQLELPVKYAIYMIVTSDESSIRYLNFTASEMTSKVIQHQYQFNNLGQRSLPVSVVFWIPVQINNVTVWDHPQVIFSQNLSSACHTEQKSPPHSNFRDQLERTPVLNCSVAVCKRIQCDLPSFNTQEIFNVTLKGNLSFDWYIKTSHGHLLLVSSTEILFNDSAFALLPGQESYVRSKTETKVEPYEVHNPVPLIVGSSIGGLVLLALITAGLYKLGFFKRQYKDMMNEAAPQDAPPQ

binding result | Binder
no binding | TLR-2 (receptor, mouse, UniProt Q9QUN7 25-784, looked up) QESLSCDASGVCDGRSRSFTSIPSGLTAAMKSLDLSFNKITYIGHGDLRACANLQVLILKSSRINTIEGDAFYSLGSLEHLDLSDNHLSSLSSSWFGPLSSLKYLNLMGNPYQTLGVTSLFPNLTNLQTLRIGNVETFSEIRRIDFAGLTSLNELEIKALSLRNYQSQSLKSIRDIHHLTLHLSESAFLLEIFADILSSVRYLELRDTNLARFQFSPLPVDEVSSPMKKLAFRGSVLTDESFNELLKLLRYILELSEVEFDDCTLNGLGDFNPSESDVVSELGKVETVTIRRLHIPQFYLFYDLSTVYSLLEKVKRITVENSKVFLVPCSFSQHLKSLEFLDLSENLMVEEYLKNSACKGAWPSLQTLVLSQNHLRSMQKTGEILLTLKNLTSLDISRNTFHPMPDSCQWPEKMRFLNLSSTGIRVVKTCIPQTLEVLDVSNNNLDSFSLFLPRLQELYISRNKLKTLPDASLFPVLLVMKIRENAVSTFSKDQLGSFPKLETLEAGDNHFVCSCELLSFTMETPALAQILVDWPDSYLCDSPPRLHGHRLQDARPSVLECHQAALVSGVCCALLLLILLVGALCHHFHGLWYLRMMWAWLQAKRKPKKAPCRDVCYDAFVSYSEQDSHWVENLMVQQLENSDPPFKLCLHKRDFVPGKWIIDNIIDSIEKSHKTVFVLSENFVRSEWCKYELDFSHFRLFDENNDAAILVLLEPIERKAIPQRFCKLRKIMNTKTYLEWPLDEGQQEVFWVNLRTAIKS
no binding | CD36 (receptor, mouse, UniProt Q08857 1-472, looked up) MGCDRNCGLIAGAVIGAVLAVFGGILMPVGDMLIEKTIKREVVLEEGTTAFKNWVKTGTTVYRQFWIFDVQNPDDVAKNSSKIKVKQRGPYTYRVRYLAKENITQDPEDHTVSFVQPNGAIFEPSLSVGTEDDNFTVLNLAVAAAPHIYQNSFVQVVLNSLIKKSKSSMFQTRSLKELLWGYKDPFLSLVPYPISTTVGVFYPYNDTVDGVYKVFNGKDNISKVAIIESYKGKRNLSYWPSYCDMINGTDAASFPPFVEKSRTLRFFSSDICRSIYAVFGSEIDLKGIPVYRFVLPANAFASPLQNPDNHCFCTEKVISNNCTSYGVLDIGKCKEGKPVYISLPHFLHASPDVSEPIEGLHPNEDEHRTYLDVEPITGFTLQFAKRLQVNILVKPARKIEALKNLKRPYIVPILWLNETGTIGDEKAEMFKTQVTGKIKLLGMVEMALLGIGVVMFVAFMISYCACKSKNGK
